Laboratory results reported in patent publication US20250011363A1, “OPTIMIZED SHORTENED PEPTIDE THAT BINDS TO ACETYLCHOLINE RECEPTOR, AND USE THEREOF” (SKINMED CO., LTD., priority 2021, published 2025).

target: acetylcholine receptor; assay: SPR, receptor on CM5 chip, peptide 10 µM

In order of rising Binding affinity (RU):
1. RRRQSK [6mer-1-129]  121 RU
2. RKRQCK [6mer-1-85]  121 RU
3. KRLFSK [6mer-1-474]  121 RU
4. KRWICK [6mer-1-88]  121 RU
5. KRQLLK [6mer-1-110]  121 RU
6. KRGFSK [6mer-1-104]  121 RU
7. KRWFYK [6mer-1-71]  121 RU
8. RKRICK [6mer-1-103]  122 RU
9. KKVLYR [6mer-1-82]  123 RU
10. KRQVSR [6mer-1-135]  123 RU
11. KKWRCK [6mer-1-471]  123 RU
12. RRRYSR [6mer-1-120]  124 RU
13. KRGVRK [6mer-1-96]  125 RU
14. KKGISK [6mer-1-90]  125 RU
15. RKQFYR [6mer-1-128]  126 RU
16. RRLQLK [6mer-1-76]  126 RU
17. RKLQLR [6mer-1-118]  127 RU
18. RRRYRR [6mer-1-102]  127 RU
19. KKSIYR [6mer-1-134]  128 RU
20. RKQQCK [6mer-1-91]  131 RU
21. KKQRSR [6mer-1-107]  131 RU
22. RRSLSR [6mer-1-115]  133 RU
23. KRVQQR [6mer-1-80]  133 RU
24. KRLQTR [6mer-1-119]  133 RU
25. KRRLCR [6mer-1-125]  135 RU
26. KRWIRR [6mer-1-93]  136 RU
27. RKVVYR [6mer-1-99]  136 RU
28. KRVQQK [6mer-1-124]  137 RU
29. KRLFCK [6mer-1-79]  137 RU
30. KKLIRK [6mer-1-122]  139 RU
31. RKVRCK [6mer-1-116]  139 RU
32. RRLLLR [6mer-1-108]  139 RU
33. KKQVYK [6mer-1-87]  139 RU
34. RKVQLK [6mer-1-72]  139 RU
35. KKLIYR [6mer-1-469]  139 RU
36. KKVYLR [6mer-1-97]  139 RU
37. KKLLYR [6mer-1-70]  139 RU
38. RRQYQK [6mer-1-75]  139 RU
39. KKSISK [6mer-1-105]  141 RU
40. RKQVLR [6mer-1-130]  142 RU
41. RRGQTK [6mer-1-84]  142 RU
42. RKVQQK [6mer-1-94]  142 RU
43. KRQRCK [6mer-1-472]  142 RU
44. KRGIQR [6mer-1-131]  142 RU
45. RKQRCK [6mer-1-89]  142 RU
46. KRLFTR [6mer-1-117]  142 RU
47. KRWLYR [6mer-1-101]  142 RU
48. KKWRQK [6mer-1-86]  142 RU
49. KKVRLR [6mer-1-74]  142 RU
50. KKWQTK [6mer-1-95]  142 RU
51. RKVRRR [6mer-1-69]  142 RU
52. KKQQQR [6mer-1-73]  142 RU
53. RKVICR [6mer-1-111]  144 RU
54. KKRVSK [6mer-1-78]  145 RU
55. RRSFLR [6mer-1-83]  146 RU
56. RKWISK [6mer-1-100]  146 RU
57. KRVIYR [6mer-1-127]  147 RU
58. KKRYLR [6mer-1-109]  148 RU
59. KKWIQR [6mer-1-126]  148 RU
60. KRGVQK [6mer-1-113]  148 RU
61. RRGVQK [6mer-1-123]  148 RU
62. KKWVCR [6mer-1-112]  148 RU
63. KKWVYR [6mer-1-470]  148 RU
64. KRRYTK [6mer-1-121]  148 RU
65. RRWQLR [6mer-1-81]  148 RU
66. KKQLRR [6mer-1-77]  149 RU
67. KRGQLK [6mer-1-106]  149 RU
68. RRLYRR [6mer-1-468]  153 RU
69. RRWRLK [6mer-1-92]  153 RU
70. RRQVYR [6mer-1-132]  153 RU
71. RRQITK [6mer-1-114]  153 RU
72. KKVLSK [6mer-1-473]  154 RU
73. KRLQCR [6mer-1-98]  154 RU
74. RKRFLR [6mer-1-133]  154 RU

target: acetylcholine receptor; assay: SPR, AchR immobilised on chip, peptide at 10 uM

In order of rising Binding affinity (RU):
1. KLVSR [5mer-597]  68 RU
2. KSIYR [5mer-298]  75 RU
3. RSLRK [5mer-297]  81 RU
4. RVRSK [5mer-598]  84 RU
